Experimental data: article PMC10384427

Biological target: SARS-CoV-2 N protein K65R, not SUMOylated (SARS-CoV-2) (UniProt P0DTC9)
Assay: FRET or BRET

Question: For “SARS-CoV-2 N protein K65R, not SUMOylated (from UniProt P0DTC9 1-419) (natural protein)”, which Kd is on record?
Answer: 1380 nM
